Values quoted from earlier work in publication PMC3089658.

Biological target: CD25 (Homo sapiens) (UniProt P01589)
UniProt P01589, sequence (P01589 22-240): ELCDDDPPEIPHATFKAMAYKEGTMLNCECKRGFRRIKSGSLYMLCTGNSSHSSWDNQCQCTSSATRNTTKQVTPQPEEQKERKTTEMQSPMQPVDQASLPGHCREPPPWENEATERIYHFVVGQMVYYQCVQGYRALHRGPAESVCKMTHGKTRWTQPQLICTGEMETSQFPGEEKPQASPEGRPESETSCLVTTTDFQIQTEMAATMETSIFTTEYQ

In the case of IL-2 (from UniProt P60568), the Kd is given as 0.01 µM.
